Laboratory results from the nanobody polyreactivity screen of Harvey et al. (2022).

Assay: yeast display, Sf9 membrane polyspecificity reagent, FACS + sequencing; frameworks hold sequencing errors
Outline: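 Genes from sorted yeast were amplified by colony PCR, read by MiSeq 2 × 250 sequencing and filtered on CDR length. These cells carried a synthetic nanobody library in Saccharomyces cerevisiae BJ5465 and were sorted by FACS into low and high (top ~1%) gates on anti-HA and streptavidin fluorescence. Polyreactivity is labelled according to the gate of origin.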

Sequence	polyreactivity (PSR sort gate)
QVQLVESGGGLVQAGGSLRLSCAASGSTFWRYAMGWYRQAPGKERELVAAITRRGSSTYYADSVKGRFTISRDNAKNTVVLQMNSLKPEDTAVYYCAAPGYVRTGVTYGGYYWGQGTQVTVSS	high polyreactivity
QVQLVESGGGLVQAGGSLRLSCAASGSTFWSYAMGWYRQAPGKEREFVAAISSSDDSTYYADSVKGRFTISRDNAKNTVYLQMNSMKPEDTAVYYCATSWYIYPYDYWGQGTQVTVSS	low polyreactivity
QVQLVESGGGLVQAGGSLRLSCAASGSTFWSYAMGWYRQAPGKERELVAAISYRGTRTRYADSVKGRFTISRDNAKNTVYLQMNSLKPEDTAVYYCAADRTFYGIRFDYWGQGTQVTVSS	high polyreactivity
QVQLVESGGGLVQAGGSLRLSCAASGSTFWSYAMGWYRQAPGKERELVAVITGSDGRTFYADSVKGRFTISRDNAKNTVYFQINSLKPEDTAVYYCAADAVFRATRDDRSTSEDDYWGQGTQVTVSS	low polyreactivity
QVQLVESGGGLVQAGGSLRLSCAASGSTFWVYGMGWYRQAPGKERELVADITSIGGSTYYADSVKGRFTISRDNAKNTVYLQMNSLKPEDTAVYYCAARETWYPYYWMGYWGQGTQVTVSS	high polyreactivity
QVQLVESGGGLVQAGGSLRLSCAASGSTFWWKTMGWYRLAPGKERELVADIRTSGGGTYYADSVKGRFTISRDNAKNNVYLQMYSLKPEDTAVYYCNADPKWEMGSWGQGTQVTVSS	low polyreactivity
QVQLVESGGGLVQAGGSLRLSCAASGSTFWWYAMGWYRQAPGKERELVAAISYSGSSTYYADSVKGRFTISRDNAKNTVYLQMNSLKPEDTAVYYCAADIQYYYNFYPGDYWGQGTQVTVSS	low polyreactivity
QVQLVESGGGLVQAGGSLRLSCAASGSTFWYNAMGWYRQAPGKERELVAAISASGGSTYYADSVKGRFTISRDNAKNTVYLQMNSLKPEDTAVYYCAAGSFWGYSRYRTYYGFDYWGQGTQVTVSS	high polyreactivity
QVQLVESGGGLVQAGGSLRLSCAASGSTFWYYAMGWYRQAPGKEREFVAAINRSGASTYYADSVKGRFTISRDNAKNTVYLEMNSLKPEDTAVYYCAAAVYLQYLDDPTYGYWGQGTQVTVSS	high polyreactivity
QVQLVESGGGLVQAGGSLRLSCAASGSTFWYYAMGWYRQAPGKERELVASITYSGGSTYYADSVKGRFTISRDNAKNTVSLQMNSLKPEDTAVYYCAAEGYYSNYHYWGQGTQVTVSS	low polyreactivity
QVQLVESGGGLVQAGGSLRLSCAASGSTFWYYTMGWSRQAPGKERELVAGITSGGSTYYADSVKGRFTISRDNAKNTVYLQMNSLKPEDTAVYYCAKRYYGRGYYYWGQGTQVTVSS	high polyreactivity
QVQLVESGGGLVQAGGSLRLSCAASGSTFYAKAMGWYRQAPGKERELVATINRRGNTYYADSVKGRFTISRDNAKNTVYLQMNSLKPEDTAVYYCAADYRRYGSYDYWGQGTQVTVSS	low polyreactivity
QVQLVESGGGLVQAGGSLRLSCAASGSTFYANAMGWYRQAPGKDRELVAAITRSGAGTYYADSVKGRFTISRDNAKNTGYLQMNSLKPEDTAVYYCAKRTKTPTGYVWGGYDYWGQGTQVTGSS	high polyreactivity
QVQLVESGGGLVQAGGSLRLSCAASGSTFYANAMGWYRQAPGKERELVAVIRWSGGSTYYADSVKGRFTISRDNAKNTVYLQMNSLKPEDTAVYYCNADFYRVAYLRRYSHFDYWGQGTQVTVSS	high polyreactivity
QVQLVESGGGLVQAGGSLRLSCAASGSTFYAYAMGWYRQAPGKERELVAAISSDGTNYADSVKGRFTISRDNAKNTVYLQMNSLKPEDTAVFYCAADLLLYSSQDNDYWGQGTQVTVSS	low polyreactivity
QVQLVESGGGLVQAGGSLRLSCAASGSTFYAYAMGWYRQAPGKERELVAVITSSGSTYYADSVKGRFTISRDNAKNTVYLQMNSLKPEDTAVYYCARVSYRGYGYWGQGTQVTVSS	high polyreactivity
QVQLVESGGGLVQAGGSLRLSCAASGSTFYAYAMGWYRQAPGKEWELVAAITYSGGTPYYADSVKGRFTISRDNAKNTVYLQMNSLKPEDTAVYYCAARYRGLTGHIDGYWGQGTQVTVSS	low polyreactivity
QVQLVESGGGLVQAGGSLRLSCAASGSTFYAYAMGWYRQAPGTERELVAAITTIGGRTYYADSVKGRFTISRDNAKNTVYLQMNSLKPEDTAVYYCAADIRSNRLYDGGYWGQGTQVTVSS	low polyreactivity
QVQLVESGGGLVQAGGSLRLSCAASGSTFYAYTMGWYRQAPGKERELVARISGRGGSTYYADSVKGRFTISRDIAKNTVYLQMNSLKPEDTAVYYCAARVYGTYRGIQYGYWGQGTQVTVSS	high polyreactivity
QVQLVESGGGLVQAGGSLRLSCAASGSTFYDNAKGWYRQAPGKERELVAGITESGGSTYYADSVKGRFTISRDNAKNTVYLQMNSLKPEDTAVYYCAAVYTYIPYLTYYYWGQGTQVTVSS	low polyreactivity
QVQLVESGGGLVQAGGSLRLSCAASGSTFYDNAMGWYRQAPGKERELVASIRSGGSTKYADSVKGRFTISRDNAKNTVYLQMNSLKPEDTAVYYCAADVHFVKDPPVKSIYGKFYYWGQGTQVTVSS	low polyreactivity
QVQLVESGGGLVQAGGSLRLSCAASGSTFYENTMGWYRQAPGKERELVAAISFRGGSTYYADSVKGRFTISRDNAKNTVYLQMNSLKPEETAVYYCAKEYYTVRLYDYWGQGTQVTVSS	low polyreactivity

Sequence	polyreactivity (PSR sort gate)
QVQLVESGGGLVQAGGSLRLSCAASGSTFYEYAMGWYRQAPGKERELVAAISSGGSTYYADSVTGRFTISRDNAKNTVYLLMNSLKPEDTAVYYCNADCQTYCGEYDYWGQGTQVTVSS	low polyreactivity
QVQLVESGGGLVQAGGSLRLSCAASGSTFYFNAMGWYRQAPGKERELVATIRSGDSTYYADSVKGRFTISSDNAKNTVYLQMNSLKPVDTAVYSCPGPLPYYGQYDYWGQGTQVTVSS	low polyreactivity
QVQLVESGGGLVQAGGSLRLSCAASGSTFYFYAMGWYREAPGKERELVAAISKRGTSTYYADSVKGRFTISRDNAKNTVYLEMNSLKPEDTAVYFCAADAPRGYNYWGQGTQVTVSS	high polyreactivity
QVQLVESGGGLVQAGGSLRLSCAASGSTFYFYAMGWYRQAPGKERELVAVISSGGRTYYADSVKGRFTISRDNAKNTVYLQMNSLKPEDTAVYYCAASWPSSLTYYYWGQGTQVTVSS	low polyreactivity
QVQLVESGGGLVQAGGSLRLSCAASGSTFYGNAMGWYRQAPGKERELVAAITWGDASTYYADSVKGRFTISRDNAKNTVYLQMNSLKPEDTAVYYCAVDESYGSSSDMDYWGQGTQVTVSS	low polyreactivity
QVQLVESGGGLVQAGGSLRLSCAASGSTFYGNMGWYRQAPGKERELVAAITYRGTNTYYADSVKGRFTISRDNAKNTVYLQMNSLKPEDTAVYYCAAEYDVYQGRGRYYGYDYWGQGTQVTVSS	high polyreactivity
QVQLVESGGGLVQAGGSLRLSCAASGSTFYGYAMGWYRQAPGKERELVAAISSGASTYYADSVKGRFTISRDNAKNSVYLQMNSLKPEDTAVYYCAAYSYPKKYGYWGQGTQVTVSL	high polyreactivity
QVQLVESGGGLVQAGGSLRLSCAASGSTFYGYAMGWYRQAPGKERELVAAISSSATRTYYADSVKGRFTISRDNAKNTVYLQMNSLKPEDTAVYYCAAVSTLLYYHYYTRDYWGQGTQVTVSS	high polyreactivity
QVQLVESGGGLVQAGGSLRLSCAASGSTFYGYAMGWYRQAPGKERELVAAITRSGGSTYYADSVKGRFTISRDNAKNTVYLQMNSLIPEDTEVYYCNKDGYKGGVGYDYWGQGTQVTVSS	high polyreactivity
QVQLVESGGGLVQAGGSLRLSCAASGSTFYGYAMGWYRQAPGKERELVAVISRSGGGTSYADSVKGRFTISRDNAKNTVYLQMNSLKPEDTAVYYCNAAKYLYRHGFMSAGDMYYWGQGTQVTVSS	high polyreactivity
QVQLVESGGGLVQAGGSLRLSCAASGSTFYGYAMGWYRQAPGKERELVAVISRSGGSTYYADSVKGRFTISRDNAKNTVYLQMNILKPEDTAVYYCNARWSFSYTVWVDSYWGLDDYWGQGTQVTVSS	high polyreactivity
QVQLVESGGGLVQAGGSLRLSCAASGSTFYGYGMGWYRQAPGKERELVAAITGYGDTTYYADSVKGRFTISRDYAKNTVDLQMNSLKPEDTAVYYCNARWHAEYDYWGQGTQVTVSS	low polyreactivity
QVQLVESGGGLVQAGGSLRLSCAASGSTFYGYTMGWYRQAPGKERELVAVITSGGSTYYADSVKGRFTISRDNAKNTVYLQMNSLKPEDTAVYYCAKRYGYPAYGRPCRIGRTYDYWGQGTQVTVSS	low polyreactivity
QVQLVESGGGLVQAGGSLRLSCAASGSTFYHYTMGWYRQAPGKERELVAAITYSGGRTYYADSVKGRFTISRDNAKNTVYLQKNSLKPEDTAVYYCAATYSTPGAGYYHYWGQGTQVTVSS	high polyreactivity
QVQLVESGGGLVQAGGSLRLSCAASGSTFYIYAMGWYRPAPGKERELVAAIDWTGSTYYADSVKGRFTISRDNAKNTVNLQMNSLKPEDTAVYYCAAYYDLEDDSYRLNSWGQGTQVTVSS	high polyreactivity
QVQLVESGGGLVQAGGSLRLSCAASGSTFYIYAMGWYRQAPGKERELVAAISGRGGSTYYADSVKGRFTISRDNAKNTVYLQMNSLKPEDTAVYYCATSLRVRRSSRDYWGQGTQVTVSS	high polyreactivity
QVQLVESGGGLVQAGGSLRLSCAASGSTFYIYAMGWYRQAPGKERELVARITRGGTTYADSVKGRFTISRDNAKNTVYLQINSLKPEDTAVYYCAARSFNIRGRYDYWGQGTQVTVSS	high polyreactivity
QVQLVESGGGLVQAGGSLRLSCAASGSTFYIYAMGWYRQAPGKERELVASIRLSTGRTNYADSVKGRFTISRDNAKNTVYLQMNSLKPEDTAVYYCAAAGYRGGGYWGQGTQVTVSS	high polyreactivity
QVQLVESGGGLVQAGGSLRLSCAASGSTFYIYAMGWYRQAPGQERELVATISWSGGSTYYADSVKGRFTISRDNAKNTVYLQMNSLKPEDTAVYYCAVRPGFGRSLWYGYWGQGTQVTVSS	high polyreactivity
QVQLVESGGGLVQAGGSLRLSCAASGSTFYIYAMGWYRQSPGKERELVAVITRGGSTYYADSVKGRFTISRDNAKNTVYLQMNSLKPEDTAVYYCAARYWNGTRDTYGSWGQGTQVTVSS	high polyreactivity
QVQLVESGGGLVQAGGSLRLSCAASGSTFYKNAMGWYRQAPGKERELVARISGRGGSTYYADSVKCRFTISRDNAKNSVYLQMNSLKPEDTAVYYCNAVKYSSSAALYDYWGQGTQVTVSS	high polyreactivity
